PMC8632722

Molecular target: His-TF-LqqP (Lysobacter enzymogenes OH11)
Assay: MST

For PcoI-His (enzyme), which Kd is on record?
Its Kd is 646 nM.
